In patent US20130331552A1:

B1: AT10-004 mutant B (antibody, V domains shown)
VH: RASQSVSRYLA
VL: RASQSVSRYLA
B2: AT10-004 mutant C (antibody, V domains shown)
VH: RASQSVSRFLA
VL: RASQSVSRFLA

Target: recombinant influenza HA3-protein (from H3N2, Wyoming, March 2003, Sino Biological Inc.) (influenza H3N2, Wyoming, March 2003)
Experiment: SPR imaging (IBIS MX96), antibody captured on anti-human-IgG chip, HA3 injected at 1 µg/ml, global 1:1 fit

Binder | Kd [nM] | koff [s⁻¹] | kon [M⁻¹ s⁻¹]
B1 | 0.05 | 1e-06 | 19000
B2 | 0.06 | 1e-06 | 17000
